Changes are numbered by the printed parent chain.

Experiment [1] has as its target T1, human E-selectin, cell-surface expressed (human, UniProt P16581 22-610).
T1 sequence: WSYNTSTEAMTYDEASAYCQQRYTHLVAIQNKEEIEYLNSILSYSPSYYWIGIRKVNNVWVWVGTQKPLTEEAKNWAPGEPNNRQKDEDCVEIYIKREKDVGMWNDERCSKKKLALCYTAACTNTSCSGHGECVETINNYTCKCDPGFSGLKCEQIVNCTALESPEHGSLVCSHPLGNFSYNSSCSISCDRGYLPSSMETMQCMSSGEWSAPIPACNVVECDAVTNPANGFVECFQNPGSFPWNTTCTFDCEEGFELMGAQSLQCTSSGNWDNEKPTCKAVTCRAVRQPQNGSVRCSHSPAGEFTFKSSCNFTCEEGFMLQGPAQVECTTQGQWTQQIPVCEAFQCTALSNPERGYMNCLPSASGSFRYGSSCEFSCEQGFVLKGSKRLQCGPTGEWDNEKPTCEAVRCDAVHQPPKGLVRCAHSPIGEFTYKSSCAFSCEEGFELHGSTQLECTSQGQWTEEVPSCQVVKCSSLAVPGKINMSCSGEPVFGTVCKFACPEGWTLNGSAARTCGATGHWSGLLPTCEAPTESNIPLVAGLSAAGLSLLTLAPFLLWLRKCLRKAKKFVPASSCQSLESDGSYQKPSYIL
As to the kind of experiment: cell-based or functional assay.

The target of experiment [2] is T1, human E-selectin, cell-surface expressed. As to the kind of experiment: competition ELISA on CHO cells vs sialyl Lewis ligand-PAA-biotin/SA-HRP. Here is the method: (§1) In a static ligand cellular adhesion assay, horse radish peroxidase (HRP) conjugated E-selectin ligand and E-selectin antibodies compete for binding to human or cynomolgus E-selectin expressed on Chinese hamster ovary (CHO) cells. The ability of anti-E-selectin antibodies to neutralize the ligand binding was assessed in a static neutralization assay using a competition enzyme-linked immunosorbent assay (ELISA) to evaluate the neutralization of the sialyl Lewis antigen to Chinese hamster ovary cells (CHO) engineered to express human or cynomolgus monkey E-selectin.
(§2) CHO cells expressing E-selectin were seeded at 12,500 cells per well into a 96 well tissue culture plate and incubated at 37° C., 5% CO₂ for 48 hours to form a confluent monolayer. Plates were subsequently washed twice with 200 μL of calcium magnesium free PBS. Anti-E-selectin antibodies, or an IgG1 isotype control, were added to the assay in the presence of a small synthetic conjugate of biotinylated, sialyl Lewis A polyacrylamide (Carbosynth LLC, OS45446) or sialyl Lewis X polyacrylamide (Glycotech, 01-045) with a streptavidin/horseradish peroxidase (100 μL total) and incubated at 37° C., 5% CO₂ for 2 hours. Plates were then washed twice with 200 μL of calcium magnesium free PBS. Following the incubation, the cells were washed twice with 200 μL of wash buffer containing 2 mM calcium chloride (50 mM TRIS [trisaminomethane], 150 mM sodium chloride; 0.05% polysorbate 20, pH 7.4; 2 mM of calcium chloride). Signal was developed by adding 100 μL of 1-Step Ultra TMB substrate (Thermo Scientific, 34028) and incubating for 30 minutes at room temperature. Reactions were stopped using 2 M of sulfuric acid and absorbance was read at 450 nm (Spectramax M5e). Data was analyzed and graphed using GraphPad Prism software (Version 8.0.2).

The target of experiment [3] is T2, cynomolgus monkey E-selectin, cell-surface expressed (cynomolgus monkey, UniProt P16581 22-610 (human entry)).
T2 construct: also called CHO-cynomolgus monkey E-selectin cells; cynomolgus monkey CHO-E
T2 chain: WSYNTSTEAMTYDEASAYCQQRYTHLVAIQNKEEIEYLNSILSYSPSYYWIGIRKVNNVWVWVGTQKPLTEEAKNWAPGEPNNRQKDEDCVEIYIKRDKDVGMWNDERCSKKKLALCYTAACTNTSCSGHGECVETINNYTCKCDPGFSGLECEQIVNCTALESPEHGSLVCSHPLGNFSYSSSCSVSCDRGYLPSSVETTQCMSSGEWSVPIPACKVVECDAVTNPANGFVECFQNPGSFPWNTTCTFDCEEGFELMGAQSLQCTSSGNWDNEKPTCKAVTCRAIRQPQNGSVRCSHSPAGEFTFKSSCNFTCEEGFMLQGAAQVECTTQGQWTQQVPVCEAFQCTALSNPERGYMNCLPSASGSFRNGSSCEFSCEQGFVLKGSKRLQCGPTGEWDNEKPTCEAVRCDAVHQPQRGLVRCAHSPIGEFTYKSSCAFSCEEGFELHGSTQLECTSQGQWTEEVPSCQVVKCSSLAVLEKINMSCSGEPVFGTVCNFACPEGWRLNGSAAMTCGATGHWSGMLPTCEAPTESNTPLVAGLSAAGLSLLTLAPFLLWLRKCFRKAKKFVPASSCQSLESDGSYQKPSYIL
Described as above. Here is the method: as §1, §2

The target of experiment [4] is T1, human E-selectin, cell-surface expressed. As to the kind of experiment: flow cytometry, CHO cells. Here is the method:
(§3) Cells were maintained in growth medium at 37° C., 5% CO₂ and 95% air in a humidified incubator. Methotrexate or Zeocin were removed from the medium prior to culture for experiments. CHO-E selectin cells were detached from T-150 flasks using citric saline (135 mM KCl, 15 mM sodium citrate) and immediately re-calcified with the addition of CaCl₂) to the detached cells to a final concentration of 1 mM. Growth media was immediately added to the detached cells, then centrifuged at 300×g for 5 minutes at room temperature to pellet the cells. Cells were plated into 96-well round-bottom plates in cold CHO buffer consisting of phosphate buffered saline (PBS), pH 7.4 containing bovine serum albumin (BSA; Sigma-Aldrich) at final concentration of 1%, calcium chloride at final concentration of 1 mM, and sodium azide at a final concentration of 0.1%, for 5 minutes on wet ice. After incubation, the cells were centrifuged at 300×g for 2 minutes at 4° C. to remove the buffer.
(§4) After incubation, the antibodies were removed and the cells were washed three times by centrifugation at 300×g for 1 minute at 4° C. and resuspended in cold CHO buffer. The washed cells were resuspended and incubated for 30 minutes on wet ice with 100 μL of 1:1000 dilution of APC-conjugated AffiniPure F(ab′)₂ Fragment Goat Anti-human IgG, Fcγ (Jackson Immunoresearch). The cells were washed three or four times prior to resuspension in CHO buffer for flow cytometric analysis. A Becton Dickinson LSRFortessa instrument using 640 nanometer laser line was used to acquire cell fluorescence data. Geometric mean fluorescence of cells was analyzed by FlowJo software package (FlowJo, LLC) and plotted against antibody concentration. The estimated EC₅₀ values were calculated using nonlinear regression analysis in the GraphPad Prism suite.
In general terms: Flow cytometry measures light scatter and fluorescence of single cells or particles in a stream.

Experiment [5] addresses T2, cynomolgus monkey E-selectin, …. As to the kind of experiment: flow cytometry, CHO cells. The method, then:
as §3, §4

B1: humanized anti-E-selectin antibody 0841 (antibody, human IgG1, kappa, V domains shown)
VH: EVQLVESGGGLVQPGGSLRLSCAASGYNIRSSYMHWVRQAPGKGLEWVARIDPANGNTIYAEKFKIRFTISADNAKNSAYLQMNSLRAEDTAVYYCAMDLYSTSEYWGQGTLVTVSS
VL: DIQMTQSPSSLSASVGDRVTITCKTSQNINRYLNWYQQKPGKAPKLLIYNANSLQTGVPSRFSGSGSGTDFTLTISSLQPEDFATYFCLQDNSWPLTFGQGTKVEIKR
notes: effector-null human IgG1, kappa
Take B1: in experiment [1], the “neutralization under physiological flow, HL-60 cell adhesion to CHO-human E-selectin cells IC50 (nM)” value is 4.17 nM. Further, the figures for the IC50 in experiment [2] and in experiment [3] were 3.81 nM and 1.74 nM, respectively. Also, the EC50 (commonly the midpoint of the concentration-response curve) in experiment [4] was found to be 1.62 nM; in experiment [5] it was 1.54 nM.

B2: anti-E-selectin antibody 0164 chimera (antibody, human IgG1, kappa, V domains shown)
VH: EVQLQQSGAEFGKPGTSVKLSCKVSGYNIRSSYMHWVNQRPGKGLEWIGRIDPANGNTIYAEKFKIKAILTADSSSNTAYMQLSQLKSDDTAIYFCAMDLYSTSEYWGQGVMVTVSS
VL: B1 VL with S10F, T22N, P40L, K42E, V58I, G64A, S76N, F83V, Q100S, V104L
notes: rat VH/VL on effector-null human IgG1 and human kappa
Regarding B2, the “neutralization under physiological flow, HL-60 cell adhesion to CHO-human E-selectin cells IC50 (nM)” value in experiment [1] worked out at 3.73 nM. Also, the values for the IC50 in experiment [2] and in experiment [3] were 5.17 nM and 2 nM, respectively. Besides, the EC50 came to 1.39 nM in experiment [4] and 1.73 nM in experiment [5].

The values are drawn from patent US20240076386A1 (Pfizer, published 2024).
